Laboratory results as given in patent publication US20120082667A1 (IMMUNAS PHARMA, published 2012).

Columns and labels:
[1] = biological target: T1, A beta monomer prepared from synthetic A beta1-40 (TFA form), 0.1 mg/ml in PBS (UniProt P05067 672-711); assay: competitive ELISA: antibody pre-incubated with soluble A beta1-40 monomer (inhibitor, varied), then binding to immobilised A beta1-40 oligomer read as OD450
T1 construct: domain: A beta1-40; also called A beta1-40 monomer; A beta40 monomer

synthesized A beta1-42 = biological target: T2, synthesized A beta1-42 (UniProt P05067 672-713); assay: dot blot: peptide spotted on nitrocellulose (0.1 micro g/dot), hybridoma culture supernatant, HRP anti-mouse IgG, ECL
T2 construct: domain: A beta1-42; spotted in the dot blot as the second of the two types of oligomers; also called A beta42 oligomer
Procedure: Dot blot analysis was carried out for hybridomas that gave positive result for primary screening. […] The membrane was blocked with Tris Buffer containing 5% low-fat milk and 0.05% Tween-20, and reacted with hybridoma culture supernatants and detected with chemiluminescence kit (ECL) after reacting with HRP-conjugated anti-mouse IgG antibody.

[2] = biological target: T3, A beta oligomer prepared from synthetic A beta1-40 (HCl form), 0.1 mg/ml in PBS, incubated at 37 degrees C … (UniProt P05067 672-711); assay: competitive ELISA: antibody pre-incubated with soluble A beta1-40 oligomer (inhibitor, varied), then binding to immobilised A beta1-40 oligomer read as OD450
T3 construct: domain: A beta1-40; non-fibrous assembly of A beta1-40; also called A beta1-40 oligomer; A beta40 oligomer

[3] = biological target: T3, A beta oligomer prepared from synthetic …; assay: SPR, Biacore 3000, A beta1-40 oligomer on CM5 chip, antibody as analyte at five concentrations
Procedure: The analysis was carried out by Surface Plasmon Resonance (SPR) using Biacore 3000 (GE Healthcare Sciences).

Row | Binder | binding result (synthesized A beta1-42) | other results
1 | AL-209 antibody (antibody, IgG2a, V domains shown) VH: not shown VL: DIQMTQSPSSLSASLGGKVTITCKASQDINKYIAWYQHKPGKGPRLLIHYTSTLQPGIPSRFSGSGSGRDYSFSISNLEPEDIATYYCLQYDNLYTFGGGTKLEIK | binds | binding result [1]: binds; binding result [2]: binds
2 | AL-202 antibody (antibody, IgG2a, V domains shown) VH: EVQLVESGGDLVKPGGSLKLSCAASGFTFSSYGMSWVRQTPDKRLEWVATISSGGSYTYYPDSVKGRFTISRDNAKNTLYLQMSSLKSEDTAMYYCARPLYYRHGVFAYWGQGTLVTVSA VL: DVQITQSPSYLAASPGETITINCRASKSISKYLAWYQEKPGKTNKLLIYSGSTLQSGIPSRFSGSGSGTDFTLTISSLEPEDFAMYYCQQHNEYPWTFGGGTKLEIK | binds | 
3 | AL-206 antibody (antibody, IgG2b, V domains shown) VH: DVQLQESGPGLVKPSQSLSLACTVTGYSITSDYAWNWIRQFPGNKLEWLGYISYSGTTRYNPSLKSRISITRDTSKNQFFLQLNSVTTEDTATYYCAIYGSSYYWYFDVWGAGTTVTVSS VL: QIVLTQSPAIMSASLGERVTMTCTASSSVSSSYLHWYQQKPGSSPKLWIYSTSNLASGVPARFSGSGSGTSYSLTISSMEAEDAATYYCHQYHRSPPTFGAGTKLELK | binds | 
4 | AL-208 antibody (antibody, IgG2b, V domains shown) VH: QVQLQQPGAELVKPGASVKLSCKASGYTFTSYWMHWVKQRPGQGLEWIGEINPSNGRTNYNEKFKSKATLTVDKSSSTAYMQLSSLTSEDSAVYYCARQGYRHGVFAYWGQGTLVTVSA VL: QIVLTQSPAIMSASLGERVTMTCTASSSVSSSYLHWYQQKPGSSPKLWIYSTSNLASGVPARFSGSGSGTSYSLTISSMEAEDAATYYCHQYHRSPPTFGAGTKLELK | binds | 
5 | AL-207 antibody (antibody, IgG2b, V domains shown) VH: QVTLKESGPGILKPSQTLSLTCSFSGFSLSTSGMGVGWIRQPSGKGLEWLAHIWWDDDEYYNPSLKSQLTISKDTTRNQVFLKITSVDTADTATYYCARRAIHYYGYDAMDYWGQGTSVTVSS VL: QIVLTQSPAIMSASLGERVTMTCTASSSVSSSYLHWYQQKPGSSPKLWIYSTSNLASGVPARFSGSGSGTSYSLTISSMEAEDAATYYCHQYHRSPPTFGAGTKLELK | binds | 
6 | AL-211 antibody (antibody, IgG2b, V domains shown) VH: QVTLKESGPGILKPSQTLSLTCSFSGFSLSTSGMGVGWIRQPSGKGLEWLAHIWWDDDKYYNPSLKSQLTISKDTSRNQVFLKITSVDTADTATYYCARRSLSRDYFDYWGQGTTLTVSS VL: DVVMTQTPLSLPVSLGDQASISCRSSQSLVHSNGNTYLHWYLQKPGQSPKLLIYKVSNRFSGVPDRFSGSGSGTDFTLKISRVEAEDLGVYFCSQSTHVPLTFGAGTKLELK | binds | 
7 | AL-227 antibody (antibody, IgG2a, V domains shown) VH: not shown VL: DVVMTQTPLSLPVSLGDQASISCRSSQSLVHSNGNTYLHWYLQKPGQSPKLLIYKVSNRFSGVPDRFSGSGSGTDFTLKISRVEAEDLGVYFCSQSTHVPLTFGAGTKLELK | binds | 
8 | AL-222 antibody (antibody, IgG2b, V domains shown) VH: QVTLKESGPGILKPSQTLSLTCSFSGFSLSTAGMGVGWIRQPSGKGLEWLAHIWWDDDKYYNPSLKSQLTISKDTSRNQVFLKITSVDTADTATYYCARRGLYYGNYDAMDYWGQGTSVTVSS VL: DVLMTQTPLSLPVSLGDQASISCRSSQSIVHSNGNTYLEWYLQKPGQSPKLLIYKVSTRFSGVPDRFSGSGSGTDFTLKISRVEAEDLGVYYCFQGSRVPLTFGAGTKLELK | binds | binding result [1]: binds; binding result [2]: binds
9 | AL-213 antibody (antibody, IgG2b, V domains shown) VH: QVQLKQSGPGLVQPSQSLSITCTVSGFSLTSYGVHWVRQSPGKGLEWLGVIWRGGSTDYNAAFMSRLSITKDNSKSQVFFKMNSLQADDTAIYYCANNRYERGGYYAMDYWGQGTSVTVSS VL: DVLMTQTPLSLPVSLGDQASISCRSSQSIVHSNGNTYLEWYLHKPGQSPKLLIYKVSNRFSGVPDRFSGSGSGTDFTLKISRVEAEDLGVYYCFQGSHVPLTFGAGTKLELK | binds | 
10 | AL-216 antibody (antibody, IgG2b, V domains shown) VH: QVQLQQPGAELVKPGASVKLSCKASGYTFTSYWMHWVKQRPGQGLEWIGEINPSNGRTNYNEKFKSKATLTVDKSSSTAYMQLSSLTSEDSAVYYCAREHYYGYGAYWGQGTLVTVSA VL: DVLMTQTPLSLPVSLGDQASISCRSSQSIVHSNGNTYLEWYLQKPGQSPKLLIYKVSNRFSGVPDRFSGSGSGTDFTLKISRVEAEDLGVYYCFQGSHVPLTFGAGTKLELK | binds | 
11 | AL-228 antibody (antibody, IgG2a, V domains shown) VH: QVTLKESGPGILKPSQTLSLTCSFSGFSLSTSGMGVGWIRQPSGKGLEWLAHIWWDDDKYYNPSLKSRLTISKDTSRNQVFLKITSVDTADTATYYCTRRALLRLQGDYFDYWGQGTTLTVSS VL: DVLMTQTPLSLPVSLGDQASISCRSSQSIVHSNGNTYLEWYLQKPGQSPKLLIYKVSNRFSGVPDRFSGSGSGTDFTLKISRVEAEDLGVYYCFQGSHVPLTFGAGTKLELK | binds | 
12 | AL-212 antibody (antibody, IgG2b, V domains shown) VH: QVTLKESGPGILKPSQTLSLTCSFSGFSLSTSGMGVGWIRQPSGKGLEWLAHIWWDDDKYYNPSLKSQLTISKDTSRNQVFLKITSVDTADTATYYCAPSTMITTFAYWGQGTLVTVSA VL: DVVMTQTPLSLPVSLGDQASISCRSSQSLVHSNGNTYLHWYLQKPGQSPKLLIYKVSNRFSGVPDRFSGSGSGTDFTLKISRVEAEDLGVYFCSQSTHVPLTFGAGTKLELK | binds | 
13 | AL-217 antibody (antibody, IgG1, V domains shown) VH: QVTLKESGPGILQPSQTLSLTCSFSGFSLSTSGMGVSWIRQPSGKGLEWLAHIYWDDDKRYNPSLKSRLTISKDTSSNQVFLKITSVDTADTATYYCARRGPSYYRYRDYFDYWGQGTTLTVSS VL: DVLMTQTPLSLPVSLGDQASISCRSSQSIVHSNGNTYLEWYLQKPGQSPKLLIYKVSNRFSGVPDRFSGSGSGTDFTLKISRVEAEDLGVYYCFQGSHVPLTFGAGTKLELK |  | Kd [3]: 6.44 nM; koff [3]: 0.00123 s⁻¹; kon [3]: 191000 M⁻¹ s⁻¹
14 | AL-226 antibody (antibody, IgG2b, V domains shown) VH: not shown VL: DVVMTQTPLSLPVSLGDQASISCRSSQSLVHSNGNTYLHWYLQKPGQSPKLLIYKVSNRFSGVPDRFSGSGSGTDFTLKISRVEAEDLGVYFCSQSTHVPLTFGAGTKLELK | binds | 
15 | AL-223 antibody (antibody, IgG2a, V domains shown) VH: QVTLKESGPGILKPSQTLSLTCSFSGFSLSTSGMGVGWIRQPSGKGLEWLAHIWWDDDKYYNPSLKSQLTISKDTSRNQVFLKITSVDTADTATYYCARRALITTRDYFDYWGQGTTLTVSS VL: DVLMTQTPLSLPVSLGDQASISCRSSQSIVHSNGNTYLEWYLQKPGQSPKLLIYKVSNRFSGVPDRFSGSGSGTDFTLKISRVEAEDLGVYYCFQGSHVPLTFGAGTKLELK | binds | binding result [1]: binds; binding result [2]: binds
16 | AL-220 antibody (antibody, IgG2b, V domains shown) VH: QVQLQQPGAELVKPGASVKLSCKASGYTFTSYWMHWVKQRPGQGLEWIGEINPSNGRTNYNEKFKSKATLTVDKSSSTAYMQLSSLTSEDSAVYYCAREHYYGYGAYWGQGTLVTVSA VL: DVLMTQTPLSLPVSLGDQASISCRSSQSIVHSNGNTYLEWYLQKPGQSPKLLIYKVSNRFSGVPDRFSGSGSGTDFTLKISRVEAEDLGVYYCFQGSHVPYTFGGGTKLEIK | binds | 
17 | AL-214 antibody (antibody, IgG2b, V domains shown) VH: QVQLKQSGPGLVQPSQSLSITCTVSGFSLTSYGVHWVRQSPGKGLEWLGVIWRGGSTDYNAAFMSRLSITKDNSKSQVFFKMNSLQADDTAIYYCANNRYERGGYYAMDYWGQGTSVTVSS VL: DVLMTQTPLSLPVSLGDQASISCRSSQSIVHSNGNTYLEWYLQKPGQSPKLLIYKVSNRFSGVPDRFSGSGSGTDFTLKISRVEAEDLGVYYCFQGSHVPLTFGAGTKLELK | binds | 
18 | AL-225 antibody (antibody, IgG2a, V domains shown) VH: QVTLKESGPGILKPSQTLSLTCSFSGFSLSTSGMGVGWIRQPSGKGLEWLAHIWWDDDKYYNPSLKSQLTISKDTSRNQVFLKITSVDTADTATYYCARRGLIRQDYFDYWGQGTTLTVSS VL: DVLMTQTPLSLPVSLGDQASISCRSSQSIVHSNGNTYLEWYLQKPGQSPKLLIYKVSNRFSGVPDRFSGSGSGTDFTLKISRVEAEDLGVYYCFQGSHVPLTFGAGTKLELK |  | Kd [3]: 126 nM; koff [3]: 0.0192 s⁻¹; kon [3]: 152000 M⁻¹ s⁻¹
19 | AL-224 antibody (antibody, IgG2a, V domains shown) VH: DVQLVESGGGLVQPGGSRKLSCAASGFTFSSFGMHWVRQAPEKGLEWVAYISSGSSTIYYADTVKGRFTISRDNPKNTLFLQMTSLRSEDTAMYYCARYGNYAMDYWGQGTSVTVSS VL: DVLMTQTPLSLPVSLGDQASISCRSSQSIVHSNGNTYLEWYLQKPGQSPKLLIYKVSNRFSGVPDRFSGSGSGTDFTLKIGRVEAEDLGVYYCFQGSHVPPTFGGGTELEIK |  | Kd [3]: 544 nM; koff [3]: 0.155 s⁻¹; kon [3]: 285000 M⁻¹ s⁻¹
